Experimental data taken from patent publication US6689868 (Dana-Farber, dated 2004).

Experiments:
[1] = molecular target: SHPTP1 (endogenous, activated human T cells) (human, UniProt P29350 1-595, limits assumed); experiment: co-immunoprecipitation with 8C93D8 from activated human T cell lysates, Western blot
Procedure: (§1) To identify the protein tyrosine phosphatase associated with CD2BP1, activated human T cells were disrupted in lysis buffer at 30 ×10^6/ml and the supernatant collected as described above. After preclearing with control beads (CNBr activated beads linked to nonspecific mouse IgG at 5 mg/ml, Sigma) overnight, the supernatant was diluted to 10 ×10^6 cells/ml in lysis buffer containing 0.1% bovine serum albumin (BSA). CD2BP1 and any associated molecules were immunoprecipitated by incubation at 4° C. for 3 h with CNBr beads coupled to either anti-CD2BP1 mAb 8C93D8 or, as a control, nonspecific mouse IgG. After two washes in lysis buffer and one wash in TBS, the immunocomplexes on the beads were eluted by heating at 65° C. for 20 min in SDS sample buffer and subjected to 12.5% reducing SDS-PAGE. After electrophoresis, proteins on the gel were transferred to nitrocellulose for Western blotting. The membranes were then probed with different primary antibodies: rabbit anti-human PTP-PEST (CSH8) 1:1000 (Garton and Tonks, 1994), rabbit anti-human FLP (aEN12) 1:1000 (Dosil et al., 1996), goat anti-human SHPTP1 (Santa Cruz) 1:100, rabbit antihuman SHPTP2 (Santa Cruz) 1:100, followed by washing and incubation with the secondary HRPO-conjugated goat anti-rabbit antibody (1:5000) or donkey anti-goat antibody (Santa Cruz) 1:2000, and signals developed by ECL. […]

[2] = molecular target: T1, SHPTP2 (endogenous, activated human T cells) (human, UniProt Q06124 2-593); experiment: as above
T1 sequence (looked up): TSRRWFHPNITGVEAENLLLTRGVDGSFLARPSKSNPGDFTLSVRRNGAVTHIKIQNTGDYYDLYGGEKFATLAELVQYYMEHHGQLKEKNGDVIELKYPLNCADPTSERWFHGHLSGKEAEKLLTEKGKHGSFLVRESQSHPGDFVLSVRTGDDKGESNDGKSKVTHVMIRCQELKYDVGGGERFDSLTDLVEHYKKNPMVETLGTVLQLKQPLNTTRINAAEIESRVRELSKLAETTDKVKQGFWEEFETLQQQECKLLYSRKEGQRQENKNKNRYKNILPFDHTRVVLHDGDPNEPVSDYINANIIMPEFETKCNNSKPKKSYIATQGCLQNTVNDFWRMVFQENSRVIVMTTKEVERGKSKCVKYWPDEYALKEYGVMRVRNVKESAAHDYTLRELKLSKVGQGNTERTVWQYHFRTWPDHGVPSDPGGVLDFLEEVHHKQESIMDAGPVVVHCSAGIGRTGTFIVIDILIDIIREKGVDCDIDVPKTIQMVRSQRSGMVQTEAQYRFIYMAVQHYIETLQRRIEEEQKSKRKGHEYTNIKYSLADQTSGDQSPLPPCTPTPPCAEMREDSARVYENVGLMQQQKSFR
Procedure: as §1

Sequence of SHPTP1 (endogenous, activated human T cells) (P29350 whole entry): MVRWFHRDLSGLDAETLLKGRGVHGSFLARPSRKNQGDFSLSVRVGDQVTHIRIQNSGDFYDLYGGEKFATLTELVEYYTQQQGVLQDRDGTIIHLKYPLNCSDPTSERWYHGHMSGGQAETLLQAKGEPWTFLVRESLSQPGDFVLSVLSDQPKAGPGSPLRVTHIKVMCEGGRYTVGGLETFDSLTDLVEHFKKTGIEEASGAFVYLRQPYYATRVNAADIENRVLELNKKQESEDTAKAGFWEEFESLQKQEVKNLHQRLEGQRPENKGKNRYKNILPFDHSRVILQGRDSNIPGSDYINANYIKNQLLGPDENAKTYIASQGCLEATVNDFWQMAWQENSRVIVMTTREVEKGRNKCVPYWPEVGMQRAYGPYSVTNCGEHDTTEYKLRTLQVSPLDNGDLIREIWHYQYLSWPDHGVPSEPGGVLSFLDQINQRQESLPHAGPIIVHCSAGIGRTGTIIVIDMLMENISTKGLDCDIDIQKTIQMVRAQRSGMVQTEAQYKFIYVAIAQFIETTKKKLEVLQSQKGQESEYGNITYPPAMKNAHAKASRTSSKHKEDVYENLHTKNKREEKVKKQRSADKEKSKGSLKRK

B1: CD2BP1 protein (endogenous, activated human T cells) (other)
chain: MMPQLQFKDAFWCRDFTAHTGYEVLLQRLLDGRKMCKDMEELLRQRAQAEERYGKELVQIARKAGGQTEINSLRASFDSLKQQMENVGSSHIQLALTLREELRSLEEFRERQKEQRKKYEAVMDRVQKSKLSLYKKAMESKKTYEQKCRDADDAEQAFERISANGHQKQVEKSQNKARQCKDSATEAERVYRQSIAQLEKVRAEWEQEHRTTCEAFQLQEFDRLTILRNALWVHSNQLSMQCVKDDELYEEVRLTLEGCSIDADIDSFIQAKSTGTEPPAPVPYQNYYDREVTPLTSSPGIQPSCGMIKRFSGLLHGSPKTTSLAASAASTETLTPTPERNEGVYTAIAVQEIQGNPASPAQEYRALYDYTAQNPDELDLSAGDILEVILEGEDGWWTVERNGQRGFVPGSYLEKL
notes: Endogenous protein
binding result [1]: no binding | binding result [2]: no binding
